This note sets out measurements from the supplement of paper PMC9170038.

This series relates to MS2 coat protein. Kind of series: apparent KD of MS2 coat protein; designed switch direction (-1 OFF switch, 1 ON switch): -1; higher = weaker reporter binding. The procedure, abridged:
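On Illumina chips, designed RNA switches with common flanks were made by stalled E. coli RNA polymerase. Titrations with SNAP-549-labelled MS2 coat protein, doubling from 0.7 or 1.5 nM to 3 µM, were done with no input, with 200 uM small-molecule ligand, or with an oligonucleotide input. Apparent KD is the median per design over clusters, from curve fits of normalised cluster fluorescence.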

Where [1] appears, read: input ligand: microRNA oligo, concentration not stated.
[2] abbreviates: Eterna round: R95, input ligand: microRNA oligo, concentration not stated.
Setting [3] is: Eterna round: R95, input ligand: FMN 200 uM.
The mark [4] stands for this setting: Eterna round: R95, input ligand: none.

As for “AGAUAACAUGAGGAUCACCCAUGUGAGGAUAUUUACCCAAGAGCUUCGGCUCUCAGGUGAAGAAGGCACGUUGA [EX1 #59] (Eterna round: R97, puzzle: Exclusion 1)”, the “apparent KD of MS2 coat protein” value reads like this: (input ligand: FMN 200 uM) 109 nM; (input ligand: none) 55.4 nM.

Regarding “AGAUAGUGGUGAGGAUAUCAGAAUAGAAAGAAAUGAGAAGGCACACAUGAGGAUCACCCAUGUGAGGUCUUGAGACUACAUGGU [Prohibition 40 - Jieux - Exclusion NG 1] (Eterna round: R96, puzzle: Exclusion NG 1)”, the “apparent KD of MS2 coat protein” value came out at 21.2 nM (input ligand: FMN 200 uM), 12.5 nM under setting [1] and 17.3 nM (input ligand: none).

Take “AGAUCACAUGAGGAUCACCCAUGUGAGGAUAUGAUACUAUGUACUUCGGUACAUAGUAUCAGAAGGCAUGUGGA [Ex1-3: 75] (puzzle: Exclusion 1)”: under setting [2], the “apparent KD of MS2 coat protein” value was 53.7 nM.

On to “AGAUCACAUGAGGAUCACCCAUGUGAGGAUAUGGACUGAAGAGCUUCGGCUCUUCAGUCCAGAAGGCACAAUGA [EX1 #43] (Eterna round: R97, puzzle: Exclusion 1)”, for which the “apparent KD of MS2 coat protein” value runs as follows: (input ligand: FMN 200 uM) 40.7 nM; (input ligand: none) 28.9 nM.

For the sequence “AGAUGCUCAAGUCGACAUGAGGAUCACCCAUGUACAGUUAAUGAGGAUAUCCGAGAUAAAUAAUAGGAGAAGGCAUGAUCAUGA [Ex NG3 #4] (Eterna round: R96, puzzle: Exclusion NG 3)”, the “apparent KD of MS2 coat protein” value is 103 nM (input ligand: FMN 200 uM), 47.3 nM under setting [1] and 102 nM (input ligand: none).

For the sequence “AGAUGGCGAGGAUAUACAUGAGGAUCACCCAUGUGAAUAAUAAUAGUGAGGAAGAAAAGUAGAAGGCGCUGUCA [Mat - Exclusion 3 - Mod of Salish D34] (puzzle: Exclusion 3)”, the “apparent KD of MS2 coat protein” value by setting is: under setting [3], 357 nM; under setting [2], 42.1 nM; under setting [4], 41.2 nM.

Consider “AGAUGUACCUAGGAUAUCCGUCUUAUUGGACUAGGAGAAGGAGGUACAUGAGGAUCACCCAUGUAUGACUCCUG [Veisteer] (puzzle: Exclusion 6)”, for which, under setting [2], the “apparent KD of MS2 coat protein” value was 9.08 nM.

Take “AGAUGUAGAUACCGAUCCUACAUGAGGAUCACCCAUGUAGCUAGACGUGCUCGCGUCGCUCGUCAGACUACCAGUAG [salish99_TOv1_r3_089] (puzzle: Sensor v3, turn-off variant 1)”: the “apparent KD of MS2 coat protein” value reads like this: under setting [3], 267 nM; under setting [2], 199 nM; under setting [4], 259 nM.

For “AGAUGUAGAUACCGGUCCUACAUGAGGAUCACCCAUGUAGCUAGACGUGCGGGCGGCGCUCGUCGGACUACCAGUAG [salish99_TOv1_r3_098] (puzzle: Sensor v3, turn-off variant 1)”, the “apparent KD of MS2 coat protein” value turned out to be 39.4 nM under setting [3], 42.8 nM under setting [2] and 59.7 nM under setting [4].

Take “AGCAAGCUUUUAAGAUCCUACAUGAGGAUCACCCAUGUGCUCGUCUUGUAACGUACUGUGACGAAAGUCACGGUACG [JL TOV1 3.31] (Eterna round: R97, puzzle: Sensor, turn-off variant 1)”: the “apparent KD of MS2 coat protein” value (input ligand: FMN 200 uM) was 374 nM and the “apparent KD of MS2 coat protein” value (input ligand: none) was determined as 506 nM.

Regarding “AGCAAGUCAGGAUAUCAAAGCAGCUAUAUGCUGCCCGGGCUUGAGAAGGGACUUGAGGAUCACCCAAGUGAUAG [Titiar] (Eterna round: R97, puzzle: Exclusion 4)”, the “apparent KD of MS2 coat protein” value (input ligand: FMN 200 uM) was determined as 101 nM and the “apparent KD of MS2 coat protein” value (input ligand: none) was determined as 25.1 nM.

As for “AGCAUGCGGAAGGAUAUUUGGAGUAGCGACUCGGGAGAAGGUCUGACAUGAGGAUCACCCAUGUGGAGAGACUG [Eternabot (L1) Solution 59] (Eterna round: R97, puzzle: Exclusion 6)”, the “apparent KD of MS2 coat protein” value reads like this: (input ligand: FMN 200 uM) 39.2 nM; (input ligand: none) 20.9 nM.

In the case of “AGCAUGGUAGGAUAUACGGAGCAUUAGGGUUUGUUAUGUGGACAUGAGGAUCACCCAUGUAGAAGGGCCGUGCA [Mat - Exclusion 2 - Mod of JL - D82] (puzzle: Exclusion 2)”, the “apparent KD of MS2 coat protein” value under setting [2] amounted to 32.6 nM.
